For 2 substances, Kd, koff and kon results are on record in paper PMC2791020.

Test [1] concerns the target protein kinase A catalytic (C) subunit mutant K285P. Nature of the test: SPR. On the technique in general: In SPR one partner is held on a chip, and binding of the other changes the refractive index at the surface.
The target of test [2] is protein kinase A catalytic (C) subunit, wild type (UniProt P05132). Nature of the test: SPR.

In general, Kd refers to the constant that tells how readily two partners part at equilibrium. Usually koff stands for the first-order rate constant of dissociation. What is called kon is the rate constant with which the complex forms. A higher kon goes with fast association.

With “RIIβAB, truncated PKA regulatory subunit RIIβ (from UniProt P12369 108-402) (domain or fragment)”, in test [1], the Kd worked out at 111 nM and the koff was 0.0123 s⁻¹.
In test [1], “RIαAB, truncated RIα(91–379) containing both cAMP-binding domains (domain or fragment)” gave a Kd of 4.9 nM, a koff of 0.00443 s⁻¹ and a kon of 906000 M⁻¹ s⁻¹. Besides, in test [2], the Kd turned out to be 0.9 nM, the koff stood at 0.000844 s⁻¹ and the kon was 919000 M⁻¹ s⁻¹.
